The term IC50 denotes the concentration at which inhibition is half-maximal.

For assay [1], the target named is H-2 D^b (mouse; human), P61769.
The target in assay [2] is H-2 K^b (mouse; human), P61769.

With LAVTIMAIL (modifications not checked) [NS2A145-153], the IC50 in assay [1] was 644 nM; in assay [2] it was above 2000 nM.

With TAIANQATV (modifications not checked) [NS4B66-74], the IC50 in assay [1] is 1.3 nM; in assay [2], above 2000 nM.

On to VAVSFVTLI (modifications not checked) [NS2A36-44], for which the values for the IC50 in assay [1] and in assay [2] were 997 nM and 12 nM, respectively.

With VAFLRFLTI (modifications not checked) [C51-59], the IC50 was determined as 1380 nM in assay [1] and 20 nM in assay [2].

FSLGVLGM (modifications not checked) [NS2A8-15] returned an IC50 in assay [1] of 1800 nM.

As for YSQVNPITL (modifications not checked) [NS4B99-107], the results for the IC50 in assay [1] and in assay [2] were 1.3 nM and 1890 nM, respectively.

In turn, MTMRCIGI (modifications not checked) [E-2-6] displayed a concentration for half-maximal inhibition (IC50) in assay [2] of 1080 nM.

For the molecule RALIFILL (modifications not checked) [M60-67], the IC50 in assay [1] is above 2000 nM; in assay [2], 22 nM.

Consider RMLINRFTM (modifications not checked) [NS5237-45], for which the half-maximal inhibitory concentration (IC50) in assay [1] is 21 nM; in assay [2] it was above 2000 nM.

In assay [2], VSWTMKIL (modifications not checked) [E451-458] registered an IC50 of 458 nM.

GMLQGRGPL (modifications not checked) [C36-44]: the IC50 in assay [1] was found to be 820 nM; in assay [2] it was 1340 nM.
